1 molecule from US7098001B2, “Polypeptides having dipeptidyl aminopeptidase activity and nucleic acids encoding same” (Novozymes, Inc., priority 1997, dated 2006) can be followed below.

Bounds are passed on as bounds.

Series [1] in a line: activity of the purified enzymes on Ala-Pro-pNA. The format is biochemical. The following applies: purified enzyme; extinction coefficient of 10000. The procedure: A polypeptide of the present invention is added to the proteinaceous substrate in an effective amount conventionally employed in protein hydrolysis processes, preferably in the range of from about 0.1 to about 100,000 dipeptidyl aminopeptidase units (DPAPU) per 100 g of protein, and more preferably in the range of from about 1 to about 10,000 dipeptidyl aminopeptidase units per 100 g of protein. As defined herein, one dipeptidyl aminopeptidase Unit (DPAPU) is the amount of enyzme needed to release 1 micromole of p-nitroanilide per minute from Ala-Pro-p-nitroanilide (Sigma Chemical Co., St. Louis Mo.) under specified conditions.
The sample was then loaded onto a column (XK-26) containing 60 ml of Q-Sepharose Big Beads, which had been pre-equilibrated with 400 ml of 20 mM sodium phosphate pH 7.0 buffer. The column was washed until baseline was reached. […] In a 96 well microtiter plate, 100 μl of the substrate solution was added to 100 μl of Aspergillus oryzae dipeptidyl aminopeptidase I (100 fold diluted in 50 mM sodium phosphate buffer pH 7.5) and the increase in absorbance at 405 nm was measured for 4 minutes using a SpectroMax 340 plate reader (Molecular Devices, Sunnyvale, Calif.). […]
The purified aminopeptidase I was determined to have an activity of 26.822 LAPUs/ml for Leu-pNA using an extinction coefficient of 10,000 for para-nitroaniline at 405 nm. […]

The nature of series [2]: temperature stability of dipeptidyl aminopeptidase I. The series is classed as physicochemical. The following applies: for Percent activity relative to 37iC.: 20 minutes, pH 7.5, no substrate, assayed with Ala-Pro-pNA. Here is the method: The temperature stability of the dipeptidyl aminopeptidase I was determined using the following protocol: 490 μl of 50 mM sodium phosphate buffer pH 7.5 was preincubated at 37 ? , 45 ? , 55 ? , 60 ? , 65 ? , 70 ? , and 75 ? C for 30 minutes in a 1.7 ml Eppendorf tube. Then 10 μl of purified dipeptidyl aminopeptidase I was added and the sample was then incubated for an additional 20 minutes. The samples were then placed on ice. Once the incubations were completed for all the temperatures, the samples were then assayed for activity using Ala-Pro-pNA as substrate.
The assay was performed by mixing 30 μl of the incubation mixtures for the various temperatures with 200 μl of 2 mg/ml Ala-Pro-pNA in 50 mM sodium phosphate pH 7.5 buffer) at ambient temperature. The absorbance at 405 nm was monitored for 5 minutes.

Series [3] in a line: activity of the purified enzymes on Leu-pNA. The format is biochemical. The conditions noted are these: 100-fold dilution. Here is the method:
The enzyme solution was then loaded onto a XK-26 column containing Q-Sepharose Big Beads pre-equilibrated with 20 mM phosphate buffer pH 7.5 buffer. A gradient was run from 0 to 300 mM NaCl, and then washed with 350 ml of 300 mM NaCl. Fractions were assayed for Leu-pNA activity according to the following protocol. The substrate was prepared by dissolving 2 mg of Leu-pNA (Sigma Chemical Co., St. Louis, Mo.) in 20 μl of DMSO. Then, 980 μl of 50 mM sodium phosphate pH 7.5 buffer was added. In a 96 well microtiter plate, 100 μl of the substrate solution was added to 100 μl of Aspergillus oryzae aminopeptidase I (100 fold diluted in 50 mM sodium phosphate pH 7.5 buffer) and the increase in absorbance at 405 nm was measured for 4 minutes using a SpectroMax 340 plate reader.
The purified aminopeptidase I was determined to have an activity of 26.822 LAPUs/ml for Leu-pNA using an extinction coefficient of 10,000 for para-nitroaniline at 405 nm. LAPU is defined as the leucine aminopeptidase activity which is determined as described in AF 298/1-GB (available on request from Novo Nordisk A/S, Denmark). The purified dipeptidyl aminopeptidase I was determined to have an activity of 11.54 DPAPU/ml for Ala-Pro-pNA, also using an extinction coefficient of 10000 for paranitroaniline. […]

In series [4] the test system is gelatin, soy bean meal tablets, wheat gluten, and sodium-caseinate. The series can be described thus: degree of hydrolysis (DH) assays, OPA method. The following applies: 0.125 mg added to FLAVOURZYME 3 mg and ALCALASE 3 mg; 50 C, 18 hours; all proteins tested. The series is classed as biochemical. Here is the method:
The degree of hydrolysis (DH) assays were performed at 50 ? C for 18 hours as a mini-hydrolysis on a 10 ml scale using gelatin, soy bean meal tablets, wheat gluten, and sodium-caseinate at a 2% concentration adjusted to pH 7, if necessary, with no pH adjustment during hydrolysis. The hydrolyses were inactivated at 85 ? C for 3 minutes in a waterbath. The enzymes used were FLAVOURZYME™ with ALCALASE™ 2.4L (Novo Nordisk A/S, Bagsvrd, Denmark) and dipeptidyl aminopeptidase I with FLAVOURZYME™ and ALCALASE™ 2.4L. FLAVOURZYME™, ALCALASE™, and dipeptidyl aminopeptidase I were dosed at 3 mg, 3 mg, 0.125 mg, respectively, per 200 mg of protein per ml.
The DH, as defined by Adler-Nissen (1986, Enzymic Hydrolysis of Food Proteins, Elsevier Applied Science Publishers), was determined by reaction of the supernatant with OPA (ortho-phtaldialdehyde, Sigma Chemical Co., St. Louis, Mo.). […]
A volume of 25 μl of suitably diluted supernatant was mixed with 200 μl of OPA reagent in a microtiter plate well and allowed to react for exactly 2 minutes at 25 ? C The absorbance at 340 nm was measured in a microtiter plate reader and compared to the absorbance of a […] L-serine standard solution after subtraction of the blank value (water reacted with OPA-reagent). […] The degree of hydrolysis was calculated on basis of the total amount of protein in the hydrolysis mixture (not on basis of soluble protein).

B1: dipeptidyl aminopeptidase I: Recombinant Aspergillus oryzae 1568 (ATCC 20386) dipeptidyl aminopeptidase I, 771 amino acids (SEQ ID NO:2), produced in Fusarium and purified (protein, listed as Aspergillus oryzae)
chain: MKYSKLLLLLVSVVQALDVPRKPHAPTGEGSKRLTFNETVVKQAITPTSRSVQWLSGAEDGSYVYAAEDGSLTIENIVTNESRTLIPADKIPTGKEAFNYWIHPDLSSVLWASNHTKQYRHSFFADYYVQDVESLKSVPLMPDQEGDIQYAQWSPVGNTIAFVRENDLYVWDNGTVTRITDDGGPDMFHGVPDWIYEEEILGDRYALWFSPDGEYLAYLSFNETGVPTYTVQYYMDNQEIAPAYPWELKIRYPKVSQTNPTVTLSLLNIASKEVKQAPIDAFESTDLIIGEVAWLTDTHTTVAAKAFNRVQDQQKVVAVDTASNKATVISDRDGTDGWLDNLLSMKYIGPIKPSDKDAYYIDISDHSGWAHLYLFPVSGGEPIPLTKGDWEVTSILSIDQERQLVYYLSTQHHSTERHLYSVSYSTFAVTPLVDDTVAAYWSASFSANSGYYILTYGGPDVPYQELYTTNSTKPLRTITDNAKVLEQIKDYALPNITYFELPLPSGETLNVMQRLPPGFSPDKKYPILFTPYGGPGAQEVTKRWQALNFKAYVASDSELEYVTWTVDNRGTGFKGRKFRSAVTRQLGLLEAEDQIYAAQQAANIPWIDADHIGIWGWSFGGYLTSKVLEKDSGAFTLGVITAPVSDWRFYDSMYTERYMKTLSTNEEGYETSAVRKTDGFKNVEGGFLIQHGTGDDNVHFQNSAALVDLLMGDGVSPEKLHSQWFTDSDHGISYHGGGVFLYKQLARKLYQEKNRQTQVLMHQWTKKDLEE
Regarding B1, in series [1], the “activity for Ala-Pro-pNA” value was determined as 11.54 DPAPU/ml. The “Percent activity relative to 37iC.” value in series [2] (37 C) came out at 100%; in series [2] (45 C) it was 103%; in series [2] (55 C), 103%; in series [2] (65 C), 92.5%; in series [2] (70 C), 37.7%; in series [2] (75 C), 0.7%. The activity retained in series [2] (after a 20 minute incubation at 65 C, pH 7.5) is recorded as 90%. For the same molecule, in series [3], the “velocity on Leu-pNA” value was < 2 mOD/min. In series [4], the “increase of the degree of hydrolysis above FLAVOURZYME and ALCALASE alone” value worked out at 5%.
